This note sets out measurements from the DeepSol protein solubility set.

This series in a line: soluble on expression in E. coli; label from the status in PepcDB or PDB records.
As to “MKGNFVVSKEDWSLHRKGYDDQKRHQEKVKEAIKNNLPDLITEESIIMSNGRDVIKIPIRSLDEYKIRYNYEKNKHVGQGNGDSQVGDVVARDGSGEGQGPGKGQGAGDLPGQDYYEAEVSLMEIEEAFFSQLELPNLQRKELDQNVTQHIEFNDIRRTGLMGNIDKKRTMLAAFKRNAMNGKPGFYPIYREDLKFKTWNEVVKPESKAVVLAMMDTSGSMGMWEKYMARSFFFWMTRFLRTKYETVEIAFIAHHTEAKVVTEEEFFTKGESGGTICSSAYRKALELIETKYSPSRYNIYPFHFSDGDNLTSDNARCVKLVQELMKVSNMFGYGEVNQYNRHSTLMSAYRNIKDEKFRYYILKQKSDVFHAMRTFFRKEESKQLV”, the “soluble on expression in E. coli” value is given as “not soluble”.
With “MFVTQQLKLMGTVIDIQIESDKACQQLSRVIDLLYTYKNRFSANDSNSELMAINQAAGVKPVSVHSDLFNLIQIGKAHSLSTPSNLNIAIGPLVQAWRIGFEDARVPSHNLISQQLALTDPRQVLIDDKKQTVFLQQVGMALDLGALAKGYITDKIMAYLIEDGIDSALINLGGNVRVHGPNPKSPDKTFRIGIQKPDAKRGQHLGVIKVNNHSVVTSGIYERQFTSKGKQYHHILDRQTGYPIETDMLSLTIMAPSSFYCDIWTTRLFGLDSSMIITLLNTFDNIEGLLVTRKHHVLMSNGLRHYFQPYYH”, the “soluble on expression in E. coli” value is given as “not soluble”.
Take “MGSDKIHHHHHHMNLVEISDIDKEILMKLEYEFPFDPQPFNIISDGLKISEEELLNRVKKLLEDGIIKRIGMYVSFRAKGMDGALIAARIPQDKIEKFRKIALGIRELTHNYVRDHPKFNIWFVLKANDRDTLNENVKELLSHVESNDYVILYSKKTLKLSVKYDVIRGVSWSPNNTIRSLSKVPTAEELGINKQLLTELSYPLKISQRPFKEIAEKYKMKEDELVELIKELYDKNVIKDYGATLNGEKIGIVENGMVLLDTSNVEQACEKLALNIPEATHVVLRESNDENWKYLCYSMIHASKKETIRNVAKEISKETNSRSYMILFSLENLKPGIVI”: the “soluble on expression in E. coli” value was “not soluble”.
On to “MATSFPVLCLPNKNIRDVLQNMSTCNLIAFSLCSKATKSHVMHLKNDIQQISIKAFLSIDINILSHNQEVTSLVFFKKDYGRWNFESCESVTATETLTPLEPESDRVWVKRGFKLRDWIDHVMEIFNCSRIHEIYISRIGHEEHYISLSNAVKELKTETIFFSFCSDTVVQSVVANVQSNDISFNLSFNIEPSMQKHKVLTRHFERVSFSKDDTREALTLNDLLITNVSQLNISAHHLSFEELNIFIRHLISGSNRRLKIVGIVCAEATRNMQILLKGISHSVYSAELKIVARNENDYQLGDTIYVYQNCGRRLAMQTYLFEGVEKIVMRVY”, for which the “soluble on expression in E. coli” value is “not soluble”.
“MDMVAQALELSRKPHVVIATPGRLADHLRSSNTFSIKKIRFLVMDEADRLLEQGCTDFTVDLEAILAAVPARRQTLLFSATLTDTLRELQGLATNQPFFWEAQAPVSTVEQLDQRYLLVPEKVKDAYLVHLIQRFQDEHEDWSIIIFTNTCKTCQILCMMLRKFSFPTVALHSMMKQKERFAALAKFKSSIYRILIATDVASRGADQPPLPPGAWTSLRYRWSSTTTPPGSPRSTSTESAGRPVQGGRVRPSRW”: the “soluble on expression in E. coli” value is on record as “soluble”.
For “MGSDKIHHHHHHMEVEITITVRKVRIPEDVAVLEIFGQYDKRARYLKKLFNVEFAVRDSEILIKGMDEKSVDAAHRVLDEIISITRDGHLLDWTEFEYLVERVSNSESVKEVYSNNSKGLIIGKKVKPKTLGQKKYLEAVEKNDVVFVIGPAGTGKTYLAVAVALDYLKMGKVNRIILTRPAVEAGEKLGYLPGDLSEKVEPYLRPLYDAIIDITSPDKFNSYRERGIIEIVPLAYMRGRTLNNSFIILDEAQNTTYQQMKMFLTRLGFNSKAVITGDITQVDIEKEKSGLIECQKILEGISGIEFVYLNESDVVRHPLVKKIIKAYEEYERSRKS”, the “soluble on expression in E. coli” value is listed as “not soluble”.
Regarding “SWQTYVDTNLVGTGAVTQAAILGLDGNTWATSAGFAVTPAQGQTLASAFNNADPIRASGFDLAGVHYVTLRADDRSIYGKKGSAGVITVKTSKSILVGVYNEKIQPGTAANVVEKLADYLIGQGF”, the “soluble on expression in E. coli” value is “soluble”.
Then “MNEIIMLLRTIPTSKLIQPIMQLFIDNAILNIVQNDALLIEKATHARNHLRLWSLQGHRDIPNLEHHHHHH”, with “not soluble”; and “MTFLIPAYNEEKSIGPLIDRIKMLCPDSEIIVVDNNSSDRTSEIATSRGVRVIFEGKQGKANAMVAAFRNTRTEYAVMMDADLTYLPDDSRVLVEVLKAEGADVVLGSRLNGEKEDGAISRINTVGNHILSFTASILYSPVSDVCTGHWAFNRRAIRHILEEGLNYSGFELEAEMFSKLARAGLKIVEVPITYRKRSDEPKLSSFTDGFKIFRTLVLERLRLEHHHHHH”, with “not soluble”.
Take “MTIAYEHPNALTYLKSMKENIIRFANKKSLYTQHDEYIKNVFMDERVNLKYHCESIVSYIAEAFIHYSVWDHSHAYYPGRPSQQTARTDALEGTSRTLPTLAAWLHANGRSNTIITGLNQQPILVPEILRKAFLAGTNPQHKGYWGTLHHCDQRVCEGADLALALWMSKEWVWDCFSIDEKCQIITWFKQVNQCETVDNNWHLFVLTVQIVLKALTGEDEVQYDKYERVKEFYVGDGWFRDGAKGNYDYYNAWAFHYSLYWFTQIDVDFDSTFINNALSDFVGNYRYFFGKEGFPFFGRSACYRLAAAAPLLAAVDLQSDKITIGEAKRAFHCNLKYFISNGALKAGLPTQGLFDEDVRLVDNYSGPASSLWSLRALNIALFCGEKINLWQAEEAPLAIEQGNFELDISAINMKILGVYETQEVIAIFKNEYTQDQSPLSRRLLAPSLEHHHHHH”: the “soluble on expression in E. coli” value is recorded as “soluble”.
In the case of “MGSGESTTRRVSFGLDEDDRVRILRGVKLSEDVLQRMRNTNADPRPPANNKENQGHQTRTPSTSDAQAPKTQAKTTFPDSKEELKKRYEQQQAIIQEELARIARKEREAARQDISRAVQRERAQTRQESERAKQLGKQLDKKEAELKALEAFYQEQITQLEKKNEERFRMSAEQFHAAATRSEANIKARNVEPVCLNLQAQILNCYRENREQTLQCSDLAKEYMQCINAAKKNLLVNHG”, the “soluble on expression in E. coli” value was “not soluble”.
Then “MGSDKIHHHHHHMLTDMQRDSASSSTVTTEQIVYGALPLTTINEPECRAIAITSINGSATLSGVSGPMGDQTDADLLIQLRGWADAIVVGAETARKENYGPVVLPHGIKNQRQKLGRCGLPKLTLLSKSLYFDFSSELFSPDLPSELSPLVITQQPANNSEQWDQRLQKLIDVGVEVIVAPTSTNPLKIAFDALHARRLKKISIEGGPSVYRQALSLGIVDRLHLTIAPNIICPVESPLFGKISDDSFTTRLVLEMLSSSPNGLIFSRYKVIRDTLGNPTQ”, with “not soluble”; and “MGSDKIHHHHHHLELSSHFTPEKIQVGISSCLLGQKVRFDGGHKNSYYCDVTLREHVEFVPVCPEMSIGLGAPRKSIRQVRDGDTLLIQSGDGSLDVTDKLNTFSQQKVAELDFLGGYILCAKSPTCGMERVTEYKIGTNNGSKAGVGVFAKVLMETYPHLPVEEEGRLNDLVLRENFITRLYAYHDWFSMLASGLTKHKLIQFHSRYKYLIMAHSPKWYRALGPILADIQDLSASADAYFDGFMTALKIKATRKNHTSTLQHIQGYFKKHLSAGQKQELSESIDKYRQGLLPLLVPITLINHYLREFPTPYIESQVYLNPHPEELKLRYAY”, with “not soluble”.
For the sequence “MSLIHYIPMFGKIKLTNLEIKMGNELISIKEEGDYFLYLRRDVERVIVGDYLQILPAPARGYGVKLMMVKLKRPIALAPGKSIEGFIQVPVEVSVKVGDSEIDRFGIGREKYALYGTLENGVIVRYCTGYIGNEPNGLGNLKVKIVNKGEDWGFIDRIVFPMLDLMYYSKDKAFYPLIRVEIQEDINVINTGEAPLPNLVSTGEEKSLRFRMRWEGHHHHHH”, the “soluble on expression in E. coli” value is listed as “soluble”.
Then “MGSDKIHHHHHHMFTSNQGAGRMNKEVGMDNPGLDVYLRDQKIGRLWLDDKRRFVFQYDSEWTHQKGAVPLSLHLPLREEIYPDDLARPFFSNLLPEAEVKRAIAQRLRISESNDFALLNSIGGECAGAVSVLPAGVAPAMKPGYRELSEEELHRIIIELPRRPLLAGVEGMRLSLAGAQNKLPVYMEDHRIFIATGNAPSSHILKPPIRDLEDTVGNEAFCMILAQRLGLQVPVVTIRRGLDRIFIIARYDRSRDTDGHIVRLHQEDFCQALGFLPEQKYENEGGPSLKQCFTLLQEKSIRPAADRMALLRWTIFNLLIGNDDAHAKNLAMIFTDRGPRLAPFYDLICTQVYPDLTEKQAMRIGGENRPSWILQKHWDRFSESTAIKPNLVLKTLKEMSAAIALAAQTLSSEFIKKYGTCTIIEEILAVIEKRAESV”, with “not soluble”.
